Experimental findings from patent US20140255414A1 (PROBIODRUG, published 2014) are described below.

Square brackets hold non-standard residues; d marks the D form. pGlu = O=C1CC[C@@H](C(=O)O)N1; PEG = not defined here

One assay deals with T1, Aβ(pE11-18)-PEG peptide (reading uncertain).
T1 construct: The PEG attachment is not described further
T1 peptide: [pGlu]VHHQKLV-{PEG}
The assay is described as follows: ITC at 20 °C, peptide titrated into biotinylated antibody. On the procedure: 1.3.4.1 Determination of Thermodynamic Parameters With ITC, the thermodynamic parameters of the binding of anti Aβ11(pE) antibody from clone 13 at antigen Aβ11(pE) was determined. For the ITC experiment, the peptide Aβ(pE11-18)-PEG was used because the hydrophilic PEG group imparts hydrophilic properties and so it was possible to dissolve the peptide directly in ITC buffer. Former experiments with Aβ(pE11-20) could only be performed with 1-2% DMSO, due to the strong hydrophobicity of the peptide it was necessary to dissolve it with DMSO which could have an effect on the ITC binding properties. At first the antibody was dialyzed against ITC buffer (150 mM NaCl, 25 mM Na₂HPO₄, 25 mM KH₂PO₄, 1 mM EDTA, pH=7.1) over night at 4° C. The lyophilised peptide, stored at −20° C., was dissolved in identical ITC buffer pH=7.1 which was used for antibody dialysis. Both antibody and antigen must be in identical solutions, otherwise large heats of dilution will mask the desired observation. Before the ITC experiment, the concentration of antibody was determined by UV/VIS spectroscopy (see section 1.3.1). At first the antibody with e.g. 5.13 μM (see Table 4) was added into the sample cell and the reference cell was filled with distilled water. Then the antigen was injected into the sample cell with e.g. 81.78 μM (see Table 4). The antigen should be generally in twofold excess to the antibody, bearing in mind that an antibody has two binding sites the antigen was in the cell at least in fourfold excess to the antibody. The 30 injections (1×2 μl and 29×10 μl) were made with a 4-min interval between subsequent injections. The measurement of heat of reaction was performed at 20° C. Furthermore the heat of reaction was determined which was only generated by dilution of the antigen through the titration into ITC buffer (pH=7.1). Therefore the antigen was injected into the sample cell filled with ITC buffer. The heat of reaction which was generated during the titration of the antigen to the antibody was corrected about this value. The analysis of raw data and the determination of the association constant (KA), reaction stoichiometry (n), binding enthalpy (ΔH) and entropy (ΔS) was performed with Origin Software of MicroCal.

The target of a further assay is T2, Aβ(pE11-30) peptide (N-terminal pyroglutamate (Aβ position 11)).
T2 construct: Synthesized peptide; Amine-coupled to a CM5 chip for SPR, or adsorbed to the microplate for the direct ELISA
T2 peptide: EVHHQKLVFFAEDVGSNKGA
The assay is described as follows: direct ELISA: AβpE(11-30) coated at 0-500 ng/ml, 1 µg/ml biotinylated antibody pre-incubated with streptavidin-HRP, absorption 450/540 nm. On the procedure:
AβpE(11-30) peptide with different concentrations was coated over night at 4° C. and then blocked with ELISA-Blocker (−T) 2 h at RT. Anti Aβ11(pE) antibody (clone 13) biotinylated was pre-incubated with streptavidin-HRP conjugate 10 min at RT and diluted in ELISA-Blocker (+T) were performed. Addition of 1 μg/ml antibody (clone 13). Wash cycles in-between incubations with 6×300 μl/well TBS-T buffer (except after peptide coating). TMB/H₂O₂ were added, incubated 30 min at RT (dark) and enzyme reaction was stopped with 1 M H₂SO₄. Absorption was measured at 450/540 nm at TECAN Sunrise.
A general note: In an ELISA, binding on a coated surface is turned into a signal by an enzyme label.

B1: biotinylated monoclonal mouse anti Aβ11(pE) antibody (clone 13) (antibody, V domains shown)
VH: QVQLQQPGTELVKPGASVKLSCKASGFTFTSYWMHWVRQRPGQGLEWIGEINPSNGRTNYNEKFKSKATLTVDKSSSTAYMQLSSLTSEDSEVYYCARGDLAWDWSAYWGQGTLVTVSA
VL: DIVMSQSPSSLAVSAGEKVTMSCKSSQSLFYSRTRKNYLAWYQQKPGQSPKLLIYWASTRESGVPDRFTGSGSGTDFTLTISSVQAEDLAVYYCKQSYNLWSFGGGTKLEIKR
modifications: about 2 biotin molecules (NHS-PEO4-Biotin) coupled per antibody; sites not stated
notes: Mouse IgG; also called anti Aβ11(pE)-biotin antibody (clone 13); mAb mouse anti Aβ11(pE)-Biotin
B1: in the assay with Aβ(pE11-18)-PEG peptide, the “-TΔS” value is -0.98 kcal/mol, the Ka amounted to 8e+06 M⁻¹, the Kd came to 125 nM and the “Stoichiometry (N)” value was determined as 1.66. For the same molecule, in the assay with Aβ(pE11-30) peptide, the binding result is on record as “binds”.

By Kd is commonly meant the free concentration of one partner at which half of the binding sites on the other are occupied at equilibrium, for simple one-to-one binding. High values mean weaker binding, low ones tighter binding.
